Measured values reported in the supplement of paper PMC10724198.
± gives the standard deviation of the averaged measurements.

Tested on: Saccharomyces cerevisiae
Experiment: protein stability index of tFT-peptide fusion (C-terminal peptide) (PSI (0-1 scale)); higher = more stable (slower turnover)
Conditions: genetic background: wild type; temperature: 30 C
Method: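 Multiplexed protein stability (MPS) profiling in S. cerevisiae. Random 12-aa peptides (tFT-X12 library) are fused to the C-terminus of a sfGFP-mCherry tandem fluorescent timer, after mCherry and a GGGS linker. Cells are FACS-sorted into 8 mCherry/sfGFP bins and deep-sequenced. The protein stability index (PSI) is the read-weighted bin average, scaled from 0 (unstable) to 1 (stable). Only peptides with >10 reads are reported; cells were grown at 30 °C in SC-His with glucose.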
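Also: PSI is a weighted mean of sequencing reads over stability bins, variants kept only with over 10 reads, mCherry proximal and sfGFP distal, peptide attached via GGGS linker.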

## PASSSFVCAVSR
  protein stability index: 0.783 ± 0.091

## PAAIARNPLPHR
  protein stability index: 0.605 ± 0.075

## FPASPQPPPPLP
  protein stability index: 0.627 ± 0.024

## HKRCCIPTNDSQ
  protein stability index: 0.6991 ± 0.0063

## PCLPPPLRLPPN
  protein stability index: 0.631 ± 0.054

## GYPLRSHCLIVD
  protein stability index: 0.68 ± 0.0081

## PLSQLPAFSPVS
  protein stability index: 0.687 ± 0.0095

## SWPPCPSGRGRG
  protein stability index: 0.727 ± 0.029

## GTEKRDSDKIIL
  protein stability index: 0.68 ± 0.086

## CHTESKLKRKKW
  protein stability index: 0.645 ± 0.028

## VGCGCVRGYWFG
  protein stability index: 0.734 ± 0.018

## ISLLIFSPTLFS
  protein stability index: 0.687 ± 0.035

## DRLGGDWMERGG
  protein stability index: 0.688 ± 0.032

## LPVRLPVSGSSS
  protein stability index: 0.8296 ± 0.0057

## LFGAGGGGVEVG
  protein stability index: 0.672 ± 0.14

## GTRAGGGWSCES
  protein stability index: 0.711 ± 0.02

## PPRLRSPTPFLL
  protein stability index: 0.755 ± 0.027

## FLNRDGFETLFC
  protein stability index: 0.686 ± 0.022

## GVDGRWGGEMGR
  protein stability index: 0.747 ± 0.097

## GLGRWGCLEGLG
  protein stability index: 0.716 ± 0.071

## NEVDSRGWTTLA
  protein stability index: 0.59 ± 0.021

## PPPAPPPPHSLV
  protein stability index: 0.717 ± 0.057

## HITMERTERTKY
  protein stability index: 0.7145 ± 0.0057

## SNVHDEVLWTRA
  protein stability index: 0.704 ± 0.011

## EGVAGEWRGMEM
  protein stability index: 0.65 ± 0.014

## HLPLPPRLLTHV
  protein stability index: 0.654 ± 0.042

## FRTVRSMVGRRP
  protein stability index: 0.721 ± 0.077

## PPPSPLLLFPPL
  protein stability index: 0.645 ± 0.11

## ADAKVGVIWVAL
  protein stability index: 0.628 ± 0.08

## GSQVGVRWGRFG
  protein stability index: 0.675 ± 0.0079

## KEELKKRRQEAK
  protein stability index: 0.677 ± 0.012

## PPSRDRATSPSE
  protein stability index: 0.656 ± 0.023

## DASCAPAQYLPI
  protein stability index: 0.673 ± 0.025

## EKRDEGAGKGEQ
  protein stability index: 0.63 ± 0.014

## PRPPALPFPLLA
  protein stability index: 0.5329 ± 0.0036

## GGLGGAGAGVVC
  protein stability index: 0.694 ± 0.11

## GPKSPLVCSPPP
  protein stability index: 0.657 ± 0.13

## TPAIPTTLMSLR
  protein stability index: 0.67 ± 0.063

## PPPPPLSPPPRP
  protein stability index: 0.68631 ± 0.00031

## STPSPPPAPRSP
  protein stability index: 0.708 ± 0.015

## FSKTLCGCQITC
  protein stability index: 0.658 ± 0.037

## NDGLKVLKETSP
  protein stability index: 0.675 ± 0.027

## FAGGAVNIGVVG
  protein stability index: 0.71 ± 0.015

## NVKIDNKQRKNK
  protein stability index: 0.746 ± 0.019

## VYHQLNDRLSLG
  protein stability index: 0.70389 ± 0.00025

## IQFKDKAVSETE
  protein stability index: 0.658 ± 0.021

## ELTLTVFQVGEE
  protein stability index: 0.602 ± 0.025

## ICRFSNRYSCPL
  protein stability index: 0.689 ± 0.016

## RWIPRMSFSESQ
  protein stability index: 0.666 ± 0.0097

## GEPGRLNSSLFA
  protein stability index: 0.678 ± 0.051

## PRPPPPRPRSSP
  protein stability index: 0.667 ± 0.066

## LRCLFAWVCECG
  protein stability index: 0.635 ± 0.083

## LMGGMIRDMVWG
  protein stability index: 0.643 ± 0.13

## PPPRLPPPPHAL
  protein stability index: 0.795 ± 0.044

## FLRGRTPLTAGD
  protein stability index: 0.582 ± 0.022

## GGLLLPCGAFGG
  protein stability index: 0.673 ± 0.06

## PPPPFLPVLLFP
  protein stability index: 0.696 ± 0.08

## TGSLSSTCPPAT
  protein stability index: 0.717 ± 0.075

## SLGPPSLSARTN
  protein stability index: 0.626 ± 0.045

## PPSPPDLPPHPP
  protein stability index: 0.618 ± 0.027

## VCAEGAAYSDKA
  protein stability index: 0.646 ± 0.038

## DPGTNGGCAPPV
  protein stability index: 0.676 ± 0.0014

## PPHPFPPPPPPS
  protein stability index: 0.665 ± 0.069

## HIHRGDRVIGDV
  protein stability index: 0.682 ± 0.01

## FLLPPPFLPLPL
  protein stability index: 0.691 ± 0.028

## TVRAPLDSARCP
  protein stability index: 0.739 ± 0.017

## NARPSPRSHSLE
  protein stability index: 0.6921 ± 0.0065

## GKRHSYSIISSV
  protein stability index: 0.668 ± 0.061

## GESPSTIRSVYS
  protein stability index: 0.609 ± 0.038

## GGGGVVAGVCGG
  protein stability index: 0.667 ± 0.098

## RDMVSPLPLPLL
  protein stability index: 0.613 ± 0.11

## RVRGAPGLRHES
  protein stability index: 0.5 ± 0.1

## AEGKGRCRRSCW
  protein stability index: 0.693 ± 0.072

## KKKKQKKNKKKK
  protein stability index: 0.6602 ± 0.0052

## KIIASVLYGVIG
  protein stability index: 0.61 ± 0.037

## RVIHLRKIHYEE
  protein stability index: 0.6728 ± 0.005

## PLRPQALDPFLY
  protein stability index: 0.6835 ± 0.0028

## WVNGFCKKGSGH
  protein stability index: 0.713 ± 0.015

## RNKSRMWKEIIR
  protein stability index: 0.657 ± 0.069

## LSPSSSLTYLSF
  protein stability index: 0.724 ± 0.07

## GVRNGFMSVSLY
  protein stability index: 0.651 ± 0.01

## FLVRMIYYRRHP
  protein stability index: 0.616 ± 0.028

## PLPHPPRPLPPH
  protein stability index: 0.717 ± 0.015

## KKIKKHEKKKNK
  protein stability index: 0.721 ± 0.053

## GAPKRLSISLSS
  protein stability index: 0.681 ± 0.019

## LLPPRPSSSPPS
  protein stability index: 0.704 ± 0.026

## APPPAPPPPPQT
  protein stability index: 0.662 ± 0.0089

## GRGIVVQNVLRQ
  protein stability index: 0.696 ± 0.011

## GDSVNSRALALS
  protein stability index: 0.732 ± 0.072

## SPPLPPVLSRSH
  protein stability index: 0.741 ± 0.043

## STICQRSTSGKG
  protein stability index: 0.657 ± 0.031

## KKDRRGGGPGGG
  protein stability index: 0.691 ± 0.03

## SGPRRECVPRSV
  protein stability index: 0.682 ± 0.066

## VGWRCWVGSVGL
  protein stability index: 0.6686 ± 0.0029

## AAMKQAIKGPVK
  protein stability index: 0.696 ± 0.019

## PTRIPRAPGPAQ
  protein stability index: 0.694 ± 0.025

## RPSLSPLHVPPS
  protein stability index: 0.748 ± 0.047

## RSEPRQILHRQT
  protein stability index: 0.702 ± 0.025
